The values below come from patent publication US20250152717A1.

The test deals with KRAS-G12V8-16 peptide (…) presented by HLA-A11 (human). Put plainly: cell-based or functional assay.

B1: TCR 11N4A (TCR)
TCR alpha: QQKNDDQQVKQNSPSLSVQEGRISILNCDYTNSMFDYFLWYKKYPAEGPTFLISISSIKDKNEDGRFTVFLNKSAKHLSLHIVPSQPGDSAVYFCAASGVSGNTPLVFGKGTRLSVIANIQNPDPAVYQLRDSKSSDKSVCLFTDFDSQTNVSQSKDSDVYITDKCVLDMRSMDFKSNSAVAWSNKSDFACANAFNNSIIPEDTFFPSPESSCDVKLVEKSFETDTNLNFQNLSVIGFRILLLKVAGFNLLMTLRLWSS
TCR beta: GVTQTPRYLIKTRGQQVTLSCSPISGHRSVSWYQQTPGQGLQFLFEYFSETQRNKGNFPGRFSGRQFSNSRSEMNVSTLELGDSALYLCASSVGTVEQYFGPGTRLTVTEDLKNVFPPEVAVFEPSEAEISHTQKATLVCLATGFYPDHVELSWWVNGKEVHSGVCTDPQPLKEQPALNDSRYCLSSRLRVSATFWQNPRNHFRCQVQFYGLSENDEWTQDRAKPVTQIVSAEAWGRADCGFTSESYQQGVLSATILYEILLGKATLYAVLVSALVLMAMVKRKDSRG
In the case of B1, the percent of TCR 11N4A-transduced T cells responding (CD137) to peptide was > 80%.
